Test results reported in the supplement of paper PMC9170038.

System: MS2 coat protein
Assay: apparent KD of MS2 coat protein; designed switch direction (-1 OFF switch, 1 ON switch): -1; higher = weaker reporter binding
Summary of the method: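 SNAP-549-labelled MS2 coat protein was titrated, doubling from 0.7 or 1.5 nM to 3 µM, over designed RNA switches transcribed on Illumina chips by stalled E. coli RNA polymerase. Runs were done without input, with 200 uM small-molecule ligand, or with an oligonucleotide input. Apparent KD is the per-design median over clusters of curve-fitted normalised fluorescence.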

[1] = input ligand: microRNA oligo, concentration not stated
[2] = Eterna round: R95, input ligand: FMN 200 uM
[3] = Eterna round: R95, input ligand: microRNA oligo, concentration not stated
[4] = Eterna round: R95, input ligand: none

| Sequence | apparent KD of MS2 coat protein [1] | apparent KD of MS2 coat protein (input ligand: FMN 200 uM) | apparent KD of MS2 coat protein (input ligand: none) | apparent KD of MS2 coat protein [2] | apparent KD of MS2 coat protein [3] | apparent KD of MS2 coat protein [4] |
| --- | --- | --- | --- | --- | --- | --- |
| UCGUUCCGUGUAGGAUAUUGGCCUUCUCUGGGCCGAGAAGGACAUGAGGAUCACCCAUGUAUGUUAUUAUCGCGCGUGGCGCAU [Design 85] (Eterna round: R96, puzzle: Exclusion NG 1) | 24.7 nM | – | – | – | – | – |
| UUAAUUAAUGUCAGGAUAUCUAGAGCUUCGGCUCUAGAGAAGGGACAUGAGGAUCACCCAUGUCACUCUUAAUU [BmEx4/3-C1] (Eterna round: R97, puzzle: Brourd's mod of Exclusion 4) | – | 21.1 nM | 15.1 nM | – | – | – |
| UACCGGCGGACCGAAGCUUUUUGCUUGUCUUAUACUACAACAUGAGGAUCACCCAUGUGGUGGUGGUCCGUUGUAGU [JL ViennaUCT Bitein mod 2] (puzzle: Sensor v3, turn-off variant 2) | – | – | – | 54.4 nM | 17.8 nM | 47.3 nM |
| CUAAAUCAUGUAGGAUAUGCGUGGCGAAGCUAUGCAGAAGGACAUGAGGAUCACCCAUGUCUUUCCGUCUGCGUACAGACGGAA [JL ENG1 1.19] (Eterna round: R96, puzzle: Exclusion NG 1) | 17.3 nM | 303 nM | 23.5 nM | – | – | – |
| GCAGCACAUGUAGGAUAUCUGCACGUGUAGUGCAGAGAAGGACAUGAGGAUCACCCAUGUAAUUAAGAUCAAUUAUUAAGCUGC [ENG1/3-C3] (Eterna round: R96, puzzle: Exclusion NG 1) | 42.4 nM | 519 nM | 49.1 nM | – | – | – |
| AUACACUAACGAGGAUAUUGGAAAGGAAGUGUACAAGAAGGCGUCCGUGGAAGGGUGAAACAUGAGGAUCACCCAUGUGAAUAA [Exclusion NG 1] (Eterna round: R96, puzzle: Exclusion NG 1) | 254 nM | 519 nM | 648 nM | – | – | – |
| AGGCACUAAGGAUAUACAAAGGUGCUGCGUAUGCUAGCCAGACAUGAGGAUCACCCAUGUAGAAGGUAGGAAUA [EX2 B.14] (Eterna round: R97, puzzle: Exclusion 2) | – | 16.4 nM | 16.8 nM | – | – | – |
| GAUUAACAUGAGGAUCACCCAUGUGAGGAUAUUGACUUGCUCACUUUCCCAUUAGAGUCGAGAAGGCGCAUCUG [1986#19] (Eterna round: R97, puzzle: Exclusion 1) | – | 34.9 nM | 60.5 nM | – | – | – |
| UAUUAGCUUGCGAGAUCCGACAUGAGGAUCACCCAUGUGCUCGUCUUAUAUGGGAGGGAGGGAAAACCCUCCCUCCC [mod-Eli] (Eterna round: R97, puzzle: Sensor, turn-off variant 1) | – | 23.8 nM | 25.4 nM | – | – | – |
| GAUAAGGUAGGAUAUACGAAUAAAGAGGGUAGUAAUAAUACACAUGAGGAUCACCCAUGUAGAAGGACCAAUAG [Mat - Exclusion 2 - Mod of my Tesla design - D42] (puzzle: Exclusion 2) | – | – | – | 41.2 nM | 19.3 nM | 17.9 nM |
| CUGUUCCGUGUAGGAUAUGCAUAUUCUCAUUAUGCAGAAGGACAUGAGGAUCACCCAUGUAUGUUAUUAUCAUGUGUUACAUGC [Design 7] (Eterna round: R96, puzzle: Exclusion NG 1) | 35.9 nM | 220 nM | 38.8 nM | – | – | – |
| UGAUCACAUGAGGAUCACCCAUGUCAGGAUAUCGUCACUGGAGCUGCGGCUCCAGUGACGAGAAGGGAUAUAAU [E1/5-A3] (Eterna round: R97, puzzle: Exclusion 1) | – | 293 nM | 104 nM | – | – | – |
| AUAAUGUAAGGAUAUCAGUCGUACAGCUGCGGCUGUACGACUGAGAAGGUACAUGAGGAUCACCCAUGUGAUCA [E4/8-A3] (Eterna round: R97, puzzle: Exclusion 4) | – | 104 nM | 1380 nM | – | – | – |
| CCCGGGCUUGUGAGGAUAUGCGCGCGGAAAUGUGUGUAGAAGGCACAUGAGGAUCACCCAUGUAAGGGCCCGGG [-32.4, -30.4 kcal, A 23%, 6-0] (Eterna round: R97, puzzle: Brourd's mod of Exclusion 4) | – | 19.3 nM | 148 nM | – | – | – |
| UUGUUAUGUGUAGGAUAUGCGUGUUAUUAUUAUGCAGAAGGACAUGAGGAUCACCCAUGUGUAUUGUUAUUAUAUAUUAUAUAU [Title] (Eterna round: R96, puzzle: Exclusion NG 1) | 13.2 nM | 21 nM | 20.8 nM | – | – | – |
| GCGCGCUAAGGAUAUACAUGAGGAUCACCCAUGUGCGCGCAAAAGCGCCGCGCGCGCGGUAGAAGGUAGGCAAA [Extraordinary-Exclusion 3] (Eterna round: R97, puzzle: Exclusion 3) | – | 16 nM | 11.4 nM | – | – | – |
| GCAGCAUAGAUGAAAAUCUGAUACAUGAGGAUCACCCAUGUACAGGAUAUGGUCUGGAUUACAGGCCAGAAGGGUACAAGCUGC [Eli exng3 - 012] (Eterna round: R96, puzzle: Exclusion NG 3) | 10.4 nM | 15.7 nM | 12.1 nM | – | – | – |

| Sequence | apparent KD of MS2 coat protein [1] | apparent KD of MS2 coat protein (input ligand: FMN 200 uM) | apparent KD of MS2 coat protein (input ligand: none) | apparent KD of MS2 coat protein [2] | apparent KD of MS2 coat protein [3] | apparent KD of MS2 coat protein [4] |
| --- | --- | --- | --- | --- | --- | --- |
| GCAGGAUAAGUGAGGAUAUACCUCUGGAUACAGAGGUAGAAGGCACAUGAGGAUCACCCAUGUCUAUCACCUGC [Fiskers BMX 4 - 78] (puzzle: Brourd's mod of Exclusion 4) | – | – | – | – | 14.5 nM | – |
| GCCAGAGCAGGAUAUCUAUAUUAUCACAUGAGGAUCACCCAUGUCCAGCGAAAGCUGGAGGGAGAAGGGCUCUGGC [Fiskers Ex 5 - 26] (Eterna round: R96, puzzle: Exclusion 5) | 60.9 nM | 51 nM | 104 nM | – | – | – |
| CUAGCGGAUGUAGGAUAUCGGACUGUUUCAGUCUGAGAAGGACAUGAGGAUCACCCAUGUAUAGCUACGUGAGUAGCUCGCUAG [JL ENG1 3.95] (Eterna round: R96, puzzle: Exclusion NG 1) | 15.3 nM | 38.1 nM | 22.8 nM | – | – | – |
| AGAAAGGCCCAUGGCCGCAAGCUUUUUGCUUGUCUUACCACAUGAGGAUCACCCAUGUGACAUGGGCUCCUGAUAAU [Atveuser] (puzzle: Sensor v3, turn-off variant 2) | – | – | – | 14.3 nM | 10.4 nM | 13.3 nM |
| ACAAGCUUGUAAUGAUAGAACAUGAGGAUCACCCAUGUAAAUGGAAGAACCAAUUGGAUAAGAUAAACUCGUCUUAU [JR_STOV1_Sub003] (Eterna round: R97, puzzle: Sensor, turn-off variant 1) | – | 114 nM | 127 nM | – | – | – |
| ACGUAUAGAGGAUAUAGUGAAUAUUACAUGAGGAUCACCCAUGUUCUUCAAAGCAUAUUCCUAGAAGGCUAAUGAA [EX-5 Malc#12] (puzzle: Exclusion 5) | – | – | – | 113 nM | 44.4 nM | 56.4 nM |
| GGAUCGUAUGUCAGGAUAUACCACUGGAUACAGUGGUAGAAGGGACAUGAGGAUCACCCAUGUCCUAUCGAUCC [Fiskers BMX 4 - 51] (puzzle: Brourd's mod of Exclusion 4) | – | – | – | – | 12 nM | – |
| AAUAACAGAGGAUAUACUGUUUUAUGUGUUUAUUGUUUUAAACAUGAGGAUCACCCAUGUAGAAGGCUGAGUAA [JMF 32] (puzzle: Exclusion 2) | – | – | – | – | 33.5 nM | – |
| GGUCGAAGUGUGAGGAUAUGCUGGUCCUUGGAUCAGCAGAAGGCACAUGAGGAUCACCCAUGUGGUAAACGACC [Mat - Exclusion 4 - Eli Mod - D34] (Eterna round: R97, puzzle: Brourd's mod of Exclusion 4) | – | 982 nM | 171 nM | – | – | – |
| UAUUAGCUAGGAUAUACAUGAGGAUCACCCAUGUCACGGGUCCACUCGUCCUAUGCGUGUAGAAGGAGCGACCC [JL Ceriza mod 2] (puzzle: Exclusion 3) | – | – | – | – | 20.6 nM | – |
| ACAUGAGGAUCACCCAUGUCAGGUUGGUCCUCUCCGGCUGUUGAGGAUAUAGUCCGGUAUCCGCGCUAGAAGGUGAGGGCUGGC [Aenatbe mod 15] (Eterna round: R96, puzzle: Exclusion NG 3) | 17.2 nM | 21.4 nM | 21.3 nM | – | – | – |
| AAAUAACAAGCAGGAUCCUACAUGAGGAUCACCCAUGUGCUCGUCUUAUAAAGUACUAUCACGAAAGUGAUAGUACU [Mat - Sensor v3 - turn-off var 1 - Eli Mod - D72] (puzzle: Sensor v3, turn-off variant 1) | – | – | – | 153 nM | 93 nM | 156 nM |
| ACAUGUGUUGUAGGAUAUAGGAUACAUGAGGAUCACCCAUGUGGAUUCAUGUCAAAGGAAACGUCCUAGAAGGACGACAACAUG [Ex NG2 #23] (Eterna round: R96, puzzle: Exclusion NG 2) | 53.2 nM | 176 nM | 84.3 nM | – | – | – |
| AUAAUGUAAGGAUAUCAGUCGUACAGCCUCGGCUGUACGACUGAGAAGGUACAUGAGGAUCACCCAUGUGGUCA [E4/9-A2] (Eterna round: R97, puzzle: Exclusion 4) | – | 103 nM | 1040 nM | – | – | – |
| UUCUCGACAUGAGGAUCACCCAUGUAGUGGGAGAAAACUGGUUAGGAUAUAAAAUAGUACACCGUUUAGAAGGGACCUAUCCUC [Eternabot solution 4] (Eterna round: R96, puzzle: Exclusion NG 3) | 45.7 nM | 79.2 nM | 72.3 nM | – | – | – |
| ACAUGAGGAUCACCCAUGUGAAAACAAUGGCUGACUUUGAGAUAGGAUAUAGGUGCAUAUCAAACCUAGAAGGGUCAUUACUGG [Deportation 91 - Jieux - Exclusion NG 3] (Eterna round: R96, puzzle: Exclusion NG 3) | 35.3 nM | 46.6 nM | 46.5 nM | – | – | – |
